Experimental findings from publication PMC12314560 are described below.

For the assay, the target named is Angiotensin-converting enzyme 2 (recombinant human ACE2 protein-mFc Tag) (human) (UniProt Q9BYF1). As to the kind of experiment: BLI. On the technique in general: Biolayer interferometry detects binding as a change in optical thickness at a sensor tip.

As usually defined, the Kd is the constant that tells how readily two partners part at equilibrium.

UniProt Q9BYF1, sequence (Q9BYF1 18-740): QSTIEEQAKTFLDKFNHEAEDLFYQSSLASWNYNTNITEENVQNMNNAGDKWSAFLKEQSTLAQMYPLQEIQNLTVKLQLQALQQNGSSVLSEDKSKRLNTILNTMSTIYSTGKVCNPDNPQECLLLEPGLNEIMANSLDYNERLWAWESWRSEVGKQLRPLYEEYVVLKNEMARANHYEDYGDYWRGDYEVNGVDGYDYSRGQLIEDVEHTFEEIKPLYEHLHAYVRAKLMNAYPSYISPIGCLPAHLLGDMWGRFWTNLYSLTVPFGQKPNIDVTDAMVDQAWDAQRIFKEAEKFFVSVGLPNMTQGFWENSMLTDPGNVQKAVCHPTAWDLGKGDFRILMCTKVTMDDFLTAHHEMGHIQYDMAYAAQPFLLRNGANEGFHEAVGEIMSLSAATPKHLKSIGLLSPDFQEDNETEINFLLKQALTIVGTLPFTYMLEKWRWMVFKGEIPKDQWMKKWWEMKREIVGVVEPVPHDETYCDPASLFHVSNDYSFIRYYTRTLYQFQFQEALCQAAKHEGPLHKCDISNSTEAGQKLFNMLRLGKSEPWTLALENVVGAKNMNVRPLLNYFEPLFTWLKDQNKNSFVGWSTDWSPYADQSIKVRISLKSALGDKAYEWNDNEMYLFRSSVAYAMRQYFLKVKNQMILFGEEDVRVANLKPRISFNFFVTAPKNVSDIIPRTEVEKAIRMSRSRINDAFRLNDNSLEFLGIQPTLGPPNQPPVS

As to Beta S1 protein (domain or fragment), the Kd stood at 472 pM.
